B1: DCC-interacting protein 13-alpha (Homo sapiens), Q9UKG1 (parent)
chain: MPGIDKLPIEETLEDSPQTRSLLGVFEEDATAISNYMNQLYQAMHRIYDAQNELSAATHLTSKLLKEYEKQRFPLGGDDEVMSSTLQQFSKVIDELSSCHAVLSTQLADAMMFPITQFKERDLKEILTLKEVFQIASNDHDAAINRYSRLSKKRENDKVKYEVTEDVYTSRKKQHQTMMHYFCALNTLQYKKKIALLEPLLGYMQAQISFFKMGSENLNEQLEEFLANIGTSVQNVRREMDSDIETMQQTIEDLEVASDPLYVPDPDPTKFPVNRNLTRKAGYLNARNKTGLVSSTWDRQFYFTQGGNLMSQARGDVAGGLAMDIDNCSVMAVDCEDRRYCFQITSFDGKKSSILQAESKKDHEEWICTINNISKQIYLSENPEETAARVNQSALEAVTPSPSFQQRHESLRPAAGQSRPPTARTSSSGSLGSESTNLAALSLDSLVAPDTPIQFDIISPVCEDQPGQAKAFGQGGRRTNPFGESGGSTKSETEDSILHQLFIVRFLGSMEVKSDDHPDVVYETMRQILAARAIHNIFRMTESHLLVTCDCLKLIDPQTQVTRLTFPLPCVVLYATHQENKRLFGFVLRTSSGRSESNLSSVCYIFESNNEGEKICDSVGLAKQIALHAELDRRASEKQKEIERVKEKQQKELNKQKQIEKDLEEQSRLIAASSRPNQASSEGQFVVLSSSQSEESDLGEGGKKRESEA
partner: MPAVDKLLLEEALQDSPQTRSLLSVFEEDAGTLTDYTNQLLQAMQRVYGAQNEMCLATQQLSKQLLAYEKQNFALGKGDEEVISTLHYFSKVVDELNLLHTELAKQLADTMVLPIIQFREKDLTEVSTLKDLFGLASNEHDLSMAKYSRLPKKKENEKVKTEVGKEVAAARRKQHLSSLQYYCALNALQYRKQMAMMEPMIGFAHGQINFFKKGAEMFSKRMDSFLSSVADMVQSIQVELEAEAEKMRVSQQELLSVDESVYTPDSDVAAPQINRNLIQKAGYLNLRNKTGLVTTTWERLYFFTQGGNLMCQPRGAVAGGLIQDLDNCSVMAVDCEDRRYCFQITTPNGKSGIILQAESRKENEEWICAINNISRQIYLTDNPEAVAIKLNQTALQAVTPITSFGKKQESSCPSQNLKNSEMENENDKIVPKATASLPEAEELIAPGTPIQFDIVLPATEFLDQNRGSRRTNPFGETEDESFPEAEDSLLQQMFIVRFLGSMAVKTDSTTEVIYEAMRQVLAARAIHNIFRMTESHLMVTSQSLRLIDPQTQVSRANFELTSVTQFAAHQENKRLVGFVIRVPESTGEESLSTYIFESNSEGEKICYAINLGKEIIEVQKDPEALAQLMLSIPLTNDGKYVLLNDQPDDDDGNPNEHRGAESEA
B2: Rho guanine nucleotide exchange factor 3 (Homo sapiens), Q9NR81 (parent)
chain: MVAKDYPFYLTVKRANCSLELPPASGPAKDAEEPSNKRVKPLSRVTSLANLIPPVKATPLKRFSQTLQRSISFRSESRPDILAPRPWSRNAAPSSTKRRDSKLWSETFDVCVNQMLTSKEIKRQEAIFELSQGEEDLIEDLKLAKKAYHDPMLKLSIMTEQELNQIFGTLDSLIPLHEELLSQLRDVRKPDGSTEHVGPILVGWLPCLSSYDSYCSNQVAAKALLDHKKQDHRVQDFLQRCLESPFSRKLDLWNFLDIPRSRLVKYPLLLREILRHTPNDNPDQQHLEEAINIIQGIVAEINTKTGESECRYYKERLLYLEEGQKDSLIDSSRVLCCHGELKNNRGVKLHVFLFQEVLVITRAVTHNEQLCYQLYRQPIPVKDLLLEDLQDGEVRLGGSLRGAFSNNERIKNFFRVSFKNGSQSQTHSLQANDTFNKQQWLNCIRQAKETVLCAAGQAGVLDSEGSFLNPTTGSRELQGETKLEQMDQSDSESDCSMDTSEVSLDCERMEQTDSSCGNSRHGESNV
partner: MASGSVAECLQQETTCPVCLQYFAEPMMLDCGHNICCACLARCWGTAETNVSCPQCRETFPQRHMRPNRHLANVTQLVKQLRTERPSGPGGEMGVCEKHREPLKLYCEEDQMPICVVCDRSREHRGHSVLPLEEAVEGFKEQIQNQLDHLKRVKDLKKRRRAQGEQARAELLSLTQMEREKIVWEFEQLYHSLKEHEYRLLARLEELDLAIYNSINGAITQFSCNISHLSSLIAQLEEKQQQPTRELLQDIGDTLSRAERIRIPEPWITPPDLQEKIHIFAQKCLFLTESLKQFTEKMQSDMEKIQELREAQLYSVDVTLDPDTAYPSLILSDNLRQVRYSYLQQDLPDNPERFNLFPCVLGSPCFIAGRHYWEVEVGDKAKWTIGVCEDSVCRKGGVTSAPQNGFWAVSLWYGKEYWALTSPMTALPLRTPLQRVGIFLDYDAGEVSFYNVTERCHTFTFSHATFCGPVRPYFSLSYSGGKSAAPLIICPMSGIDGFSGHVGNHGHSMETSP
B3: "Guanine nucleotide-binding protein G(T) subunit gamma-T1" (Homo sapiens), P63211 (parent)
chain: MPVINIEDLTEKDKLKMEVDQLKKEVTLERMLVSKCCEEVRDYVEERSGEDPLVKGIPEDKNPFKELKGGCVIS
partner: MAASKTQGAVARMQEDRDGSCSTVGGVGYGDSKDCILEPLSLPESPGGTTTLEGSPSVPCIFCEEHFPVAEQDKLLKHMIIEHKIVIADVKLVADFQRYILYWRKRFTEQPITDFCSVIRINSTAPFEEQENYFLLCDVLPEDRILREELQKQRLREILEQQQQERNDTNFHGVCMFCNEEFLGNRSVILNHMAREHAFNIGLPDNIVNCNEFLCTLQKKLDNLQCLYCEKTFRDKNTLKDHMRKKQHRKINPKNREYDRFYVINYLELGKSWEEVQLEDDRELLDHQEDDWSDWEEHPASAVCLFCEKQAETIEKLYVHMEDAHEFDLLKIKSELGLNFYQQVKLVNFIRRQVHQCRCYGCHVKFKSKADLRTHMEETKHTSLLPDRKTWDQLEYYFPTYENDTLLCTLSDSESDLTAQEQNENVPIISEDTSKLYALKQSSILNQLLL
B4: Keratin-associated protein 12-2 (Homo sapiens), P59991 (parent)
chain: MCHTSCSSGCQPACCAPSPCQPACCVPSSCQASCCVPVGCQSSVCVPVSFKPAVCLPVSCQSSVCVPMSFKSAVCVPVSCQSSVCVPVSCRPIVCAAPSCQSSLCVPVSCRPVVYAAPSCQSSGCCQPSCTSVLCRPISYSISSCC
partner: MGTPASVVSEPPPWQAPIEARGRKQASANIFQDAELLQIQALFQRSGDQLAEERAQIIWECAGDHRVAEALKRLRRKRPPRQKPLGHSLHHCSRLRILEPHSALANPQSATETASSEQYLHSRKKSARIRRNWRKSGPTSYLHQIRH
B5: Zinc finger protein 473 (Homo sapiens), Q8WTR7 (parent)
chain: MAEEFVTLKDVGMDFTLGDWEQLGLEQGDTFWDTALDNCQDLFLLDPPRPNLTSHPDGSEDLEPLAGGSPEATSPDVTETKNSPLMEDFFEEGFSQEIIEMLSKDGFWNSNFGEACIEDTWLDSLLGDPESLLRSDIATNGESPTECKSHELKRGLSPVSTVSTGEDSMVHNVSEKTLTPAKSKEYRGEFFSYSDHSQQDSVQEGEKPYQCSECGKSFSGSYRLTQHWITHTREKPTVHQECEQGFDRNASLSVYPKTHTGYKFYVCNEYGTTFSQSTYLWHQKTHTGEKPCKSQDSDHPPSHDTQPGEHQKTHTDSKSYNCNECGKAFTRIFHLTRHQKIHTRKRYECSKCQATFNLRKHLIQHQKTHAAKTTSECQECGKIFRHSSLLIEHQALHAGEEPYKCNERGKSFRHNSTLKIHQRVHSGEKPYKCSECGKAFHRHTHLNEHRRIHTGYRPHKCQECVRSFSRPSHLMRHQAIHTAEKPYSCAECKETFSDNNRLVQHQKMHTVKTPYECQECGERFICGSTLKCHESVHAREKQGFFVSGKILDQNPEQKEKCFKCNKCEKTFSCSKYLTQHERIHTRGVKPFECDQCGKAFGQSTRLIHHQRIHSRVRLYKWGEQGKAISSASLIKLQSFHTKEHPFKCNECGKTFSHSAHLSKHQLIHAGENPFKCSKCDRVFTQRNYLVQHERTHARKKPLVCNECGKTFRQSSCLSKHQRIHSGEKPYVCDYCGKAFGLSAELVRHQRIHTGEKPYVCQECGKAFTQSSCLSIHRRVHTGEKPYRCGECGKAFAQKANLTQHQRIHTGEKPYSCNVCGKAFVLSAHLNQHLRVHTQETLYQCQRCQKAFRCHSSLSRHQRVHNKQQYCL
partner: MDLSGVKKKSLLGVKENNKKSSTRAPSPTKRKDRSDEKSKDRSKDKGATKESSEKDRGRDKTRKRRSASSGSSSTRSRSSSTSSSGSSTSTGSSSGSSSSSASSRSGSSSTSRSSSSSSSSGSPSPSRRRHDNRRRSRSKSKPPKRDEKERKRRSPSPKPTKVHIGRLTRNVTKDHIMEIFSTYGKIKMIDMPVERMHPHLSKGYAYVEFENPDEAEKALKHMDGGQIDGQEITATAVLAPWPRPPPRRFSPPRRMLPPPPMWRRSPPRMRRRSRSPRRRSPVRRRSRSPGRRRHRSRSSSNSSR

Variants of: B1
Conditions: with dp13b_human APPL2, Q8NEU8

Variant | effect of a mutation on the interaction
E67G | with no effect
E643Q | with no effect

Variants of: B2
Conditions: with tri27_human TRIM27, P14373

Variant | effect of a mutation on the interaction
N432S | with no effect

Variants of: B3
Conditions: with zn277_human ZNF277, Q9NRM2

Variant | effect of a mutation on the interaction
E50K | with no effect

Variants of: B4
Conditions: with avpi1_human AVPI1, Q5T686

Variant | effect of a mutation on the interaction
A16T | with no effect
S143P | with no effect

Variants of: B5
Conditions: with rnps1_human RNPS1, Q15287

Variant | effect of a mutation on the interaction
S59G | with no effect
N82S | with no effect
T164M | with no effect

Other lines, results leading:

effect of a mutation on the interaction | Variant
with no effect | R223C
with no effect | E309G
with no effect | Y456H

Reference: IntAct's records for PubMed 31515488
